# Data from patent publication US20020077289A1, “Angiostatin and endostatin binding proteins and methods of use” (priority 2000, published 2002).
# B1: rhEndostatin: recombinant human Endostatin, antiangiogenic fragment of a C-terminal non-collagenous region of a collagen protein, produced in P. pastoris (protein)
# chain: HSHRDFQPVLHLVALNSPLSGGMRGIRGADFQCFQQARAVGLAGTFRAFLSSRLQDLYSIVRRADRAAVPIVNLKDELLFPSWEALFSGSEGPLKPGARIFSFDGKDVLRHPTWPQKSVWHGSDPNGRRLTESYCETWRTEAPSATGQASSLLGGRLLGQSAASCHHAYIVLCIENSFMTASK
# Tests used:
# intratumoral blood flow = details: systemic rhEndostatin therapy; cited from earlier work
# G-actin = assay: Actin polymerization light scatter assay; format: biochemical; details: G-actin/Endostatin nucleation complexes
# Excerpt: As a result of the inventors findings, also included herein are_antiangiogenic actin-binding molecules. Though not wishing to be bound by the following theory, it is believed that since actin polymerization is affected by Endostatin it could possibly mean that Endostatin is binding to the actin component of the microfilaments, in addition to or in association with tropomyosin. […] Accordingly, molecules such as Endostatin that have an effect on actin polymerization will have an effect on microfilaments resulting in anti-angiogenic activity through modification of cell motility, and induction of cell apoptosis. Preferred embodiments of the present invention include compositions comprising proteins and chemicals that bind tropomyosin isoforms, such as hTM3. In certain embodiments, such compositions may be characterized as antiangiogenic actin-binding molecules.
# viable HUVECs = assay: Internalization of Alexa Fluor 488 labeled rhEndostatin by viable HUVECs; format: cell-based, human
# Method: To determine whether live endothelial cells actively internalize Endostatin protein, viable HUVECs were incubated with Alexa Fluor™ 488 labeled rhEndostatin protein. […] Internalized rhEndostatin was rapidly processed such that by 60 minutes, little if any intercellular fluorescence was detected (data not shown).
# HUVEC microfilaments = assay: Fluorescent staining of formalin fixed endothelial cells with Alexa 488-labeled rhEndostatin; format: cell-based, human; details: 40 μg/ml Alexa 488-labeled rhEndostatin with anti-tropomyosin TM311; HUVECs
# Method: (A), HUVECs, (B), HAECs and (C), HMVECs were incubated in the presence of 40 micrograms per milliliter (μg/ml) Alexa 488-labeled rhEndostatin and photographed at 100× magnification under Alexa 488 (green) excitation wavelength. (D) and (E), HUVECs were incubated simultaneously in anti-tropomyosin TM311 ascites fluid and 40 micrograms per milliliter (μg/ml) Alexa 488-labeled rhEndostatin followed by incubation in Alexa 594 conjugated goat anti-mouse IgG (H+L). The same field was photographed under Alexa 488 (green) and Alexa 594 (red) excitation wavelengths at 100× magnification.
# HUVECs were incubated in the presence of 40 micrograms per milliliter (μg/ml) Alexa 488-labeled rhEndostatin alone (A), or in the presence of a 50-fold molar excess of control peptide (B), or E37 peptide (C). Cells were photographed using the same exposure times at 100x magnification under Alexa 488 (green) excitation wavelength.
# To detect the binding of Alexa-labeled rhEndostatin 1×10^4 HUVEC, HMVEC and HAECs were plated on 1.5% gelatin coated Nalge Nunc Lab Tek II chamber slides (Naperville, Ill.) and fixed in 10% neutral buffered formalin followed by a methanol wash. The chamber slides were incubated in PBS/1% calf serum containing 40 μg/ml (2 μM) of Alexa 488-labeled rhEndostatin (Narum et al., manuscript in preparation) for 1 hr at room temperature. The slides were washed in PBS, coverslips mounted using fluorescent mounting media (Kirkegaard and Perry Laboratories, Gaithersburg, Md.) and cells photographed under Alexa 488 excitation wavelength. Co-localization studies were performed as above except cells were incubated in PBS/1% calf serum containing 1:200 mouse anti-tropomyosin TM311 (Sigma, St. Louis, Miss.) and 40 μg/ml of Alexa 488-labeled rhEndostatin followed by incubation with goat anti-mouse IgG (H+L) conjugated to Alexa 594 (Molecular Probes, Eugene, Oregon). The same fields were photographed under Alexa 488 and Alexa 594 wavelengths. […]
# [1] = Pharmacokinetics: serum rhEndostatin levels after s.c. administration; format: in vivo, C57BL/6J mice; details: for AUClast: sera 0.17-2 hours
# Method: To determine the pharmacokinetics, C57BL/6J mice (3 per time point) were dosed s.c. with 1.5 nmol of rhEndostatin alone or in combination with 375 nmol of either E37 or control peptide. Sera was collected 0.17, 0.5, 1 and 2 hours following s.c. administration. Serum drug levels were determined using an Endostatin EIA kit (Cytlmmune Sciences, College Park, Md.) according to the manufacture's instructions. Pharmacokinetic analyses of the serum concentration versus time data were performed by nonlinear least square minimization using RSTRIP (Version 4.03, MicroMath Scientific Software, Salt Lake City, Ut.).
# Groups of mice (3 mice/time point) were injected s.c. with 1.5 nmol of rhEndostatin alone or in combination with a 250-fold molar excess of either E37 or control peptide. Sera were collected at 0.17, 0.5, 1 and 2 hours following s.c. administration, and assessed for serum rhEndostatin levels as previously described (Sim et al.)
# fibroblasts = assay: Proliferation of PDGF-BB or 20% fetal calf serum stimulated fibroblasts (thymidine incorporation, MTT); format: cell-based; details: stimulated with PDGF-BB or 20% fetal calf serum; compared with pericytes
# Excerpt: Endostatin protein results in an inhibition of proliferation of PDGF-BB or 20% fetal calf serum stimulated primary cultures of pericytes and to a lesser extent fibroblasts. […] The results have been confirmed using a MTT proliferation kit.
molecule,measurement,setting,value
B1,reduction of intratumoral blood flow,intratumoral blood flow,50%
same,effect on actin polymerization,G-actin,shorten the lag phase and facilitate actin polymerization
same,internalization by live endothelial cells,viable HUVECs,rapidly internalized and translocated predominantly to the nucleus
same,localization of fluorescently labeled rhEndostatin in fixed cells,HUVEC microfilaments,co-localized to HUVEC microfilaments
same,AUClast,[1]; 1.5 nmol rhEndostatin s.c. + 250x E37 peptide,4544 ng·min/mL
same,AUClast,[1]; 1.5 nmol rhEndostatin s.c. + 250x control peptide,5552 ng·min/mL
same,AUClast,[1]; 1.5 nmol rhEndostatin s.c. alone,5370 ng·min/mL
same,AUClast relative to rhEndostatin alone or with 375 nmol control peptide,[1]; 1.5 nmol rhEndostatin s.c. co-administered with 250-fold molar excess of E37 peptide,85%
same,thymidine incorporation into fibroblasts,fibroblasts,to a lesser degree
